Assay results taken from the supplement of paper PMC7877785.
± gives the uncertainty stated by the source.

Test: self-splicing fitness, log relative to wild type (ln ratio); higher = more splicing; Tetrahymena group I intron in knt gene, E. coli kanamycin selection, DiMSum; sequences stand for … in CUCUCU…GGAGGGAAAAGUUAUCAGGCAUGCACCUGGUAGCUAGUCUUUAAACCAAUAGAUUGCAUCGGUUUAAAAGGCAAGACCGUCAAAUUGCGGGAAAGGGGUCAACAGCCGUUCAGUACCAAGUCUCAGGGGAAACUUUGAGAUGGCCUUGCAAAGGGUAUGGUAAUAAGCUGACGGACAUGGUCCUAACCACGCAGCCAAGUCCUAAGUCAACAGAUCUUCUGUUGAUAUGGAUGCAGUUCACAGACUAAAUGUCGGUCGGGGAAGAUGUAUUCUUCUCAUAAGAUAUAGUCGGACCUCUCCUUAAUGGGAGCUAGCGGAUGAAGUGAUGCAACACUGGAGCCGCUGGGAACUAAUUUGUAUGCGAAAGUAUAUUGAUUAGUUUUGGAGUACUCGUGGUCG
Method in brief: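 The eight P1ex-region nucleotides of an intron in the knt kanamycin-resistance gene on pET-22b(+) were all randomised and the library put into E. coli BL21(DE3). Six replicate transformations were grown overnight at 37°C or 30°C on LB agar with or without 25 μg/mL kanamycin, together with 100 μg/mL carbenicillin, 50 μM IPTG and 0.2% rhamnose. Colonies were pooled and amplicon-sequenced on an Illumina HiSeq 2500. Fitness from DiMSum is the error-weighted combination of wild-type-normalised replicate fold changes, kanamycin over none.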

CACCAGCAAUAUUACGCAAG
self-splicing fitness (ln) (30 °C): -0.716 ± 0.093 | self-splicing fitness (ln) (37 °C): -0.12 ± 0.11

CACCAGCAAUAUUACGCAGA
self-splicing fitness (ln) (30 °C): -3.13 ± 0.13 | self-splicing fitness (ln) (37 °C): -2.57 ± 0.13

CACCAGCAAUAUUACGCGCU
self-splicing fitness (ln) (30 °C): -3.42 ± 0.14 | self-splicing fitness (ln) (37 °C): -2.59 ± 0.16

CACCAGCAAUAUUACGCUGA
self-splicing fitness (ln) (30 °C): -3.31 ± 0.17 | self-splicing fitness (ln) (37 °C): -2.68 ± 0.15

CACCAGCAAUAUUACGCUUA
self-splicing fitness (ln) (30 °C): -2.24 ± 0.09 | self-splicing fitness (ln) (37 °C): -1.23 ± 0.083

CACCAGCAAUAUUACGGCAU
self-splicing fitness (ln) (30 °C): -2.64 ± 0.066 | self-splicing fitness (ln) (37 °C): -0.735 ± 0.069

CACCAGCAAUAUUACGGCGU
self-splicing fitness (ln) (30 °C): -2.28 ± 0.097 | self-splicing fitness (ln) (37 °C): -0.886 ± 0.11

CACCAGCAAUAUUACGGGAC
self-splicing fitness (ln) (30 °C): -4.05 ± 0.13 | self-splicing fitness (ln) (37 °C): -2.05 ± 0.1

CACCAGCAAUAUUACGGGUG
self-splicing fitness (ln) (30 °C): -3.87 ± 0.15 | self-splicing fitness (ln) (37 °C): -2.26 ± 0.15

CACCAGCAAUAUUACGGUCG
self-splicing fitness (ln) (30 °C): -1.28 ± 0.062 | self-splicing fitness (ln) (37 °C): -0.351 ± 0.069

CACCAGCAAUAUUACGGUCU
self-splicing fitness (ln) (30 °C): -1.44 ± 0.044 | self-splicing fitness (ln) (37 °C): -1.04 ± 0.057

CACCAGCAAUAUUACGGUUA
self-splicing fitness (ln) (30 °C): -0.251 ± 0.068 | self-splicing fitness (ln) (37 °C): -0.0422 ± 0.09

CACCAGCAAUAUUACGUAAU
self-splicing fitness (ln) (30 °C): -2.63 ± 0.078 | self-splicing fitness (ln) (37 °C): -1.89 ± 0.097

CACCAGCAAUAUUACGUACA
self-splicing fitness (ln) (30 °C): -3.16 ± 0.17 | self-splicing fitness (ln) (37 °C): -1.59 ± 0.13

CACCAGCAAUAUUACGUAUC
self-splicing fitness (ln) (30 °C): -3.55 ± 0.14 | self-splicing fitness (ln) (37 °C): -2.99 ± 0.19

CACCAGCAAUAUUACGUAUG
self-splicing fitness (ln) (30 °C): -0.556 ± 0.041 | self-splicing fitness (ln) (37 °C): -0.105 ± 0.055

CACCAGCAAUAUUACGUCCG
self-splicing fitness (ln) (30 °C): -0.0929 ± 0.051 | self-splicing fitness (ln) (37 °C): 0.19 ± 0.071

CACCAGCAAUAUUACGUGCC
self-splicing fitness (ln) (30 °C): -3.42 ± 0.27 | self-splicing fitness (ln) (37 °C): -1.27 ± 0.46

CACCAGCAAUAUUACGUGUA
self-splicing fitness (ln) (30 °C): -2.09 ± 0.065 | self-splicing fitness (ln) (37 °C): -0.896 ± 0.069

CACCAGCAAUAUUACGUUGA
self-splicing fitness (ln) (30 °C): -4.33 ± 0.31 | self-splicing fitness (ln) (37 °C): -2.1 ± 0.13

CACCAGCAAUAUUACGUUUU
self-splicing fitness (ln) (30 °C): -3.95 ± 0.15 | self-splicing fitness (ln) (37 °C): -3.22 ± 0.18

CACGAGCAAUAUUACGAAAC
self-splicing fitness (ln) (30 °C): -2.02 ± 0.36 | self-splicing fitness (ln) (37 °C): -1.68 ± 0.4

CACGAGCAAUAUUACGAAGG
self-splicing fitness (ln) (30 °C): -3.2 ± 0.19 | self-splicing fitness (ln) (37 °C): -2.01 ± 0.26

CACGAGCAAUAUUACGACAU
self-splicing fitness (ln) (30 °C): -3.645 ± 0.024 | self-splicing fitness (ln) (37 °C): -2.92 ± 0.04

CACGAGCAAUAUUACGACCU
self-splicing fitness (ln) (30 °C): -2.18 ± 0.17 | self-splicing fitness (ln) (37 °C): -2.27 ± 0.27

CACGAGCAAUAUUACGAGCC
self-splicing fitness (ln) (30 °C): -3.12 ± 0.31 | self-splicing fitness (ln) (37 °C): -3.55 ± 0.47

CACGAGCAAUAUUACGAGCU
self-splicing fitness (ln) (30 °C): -4.14 ± 0.35 | self-splicing fitness (ln) (37 °C): -3.33 ± 0.39

CACGAGCAAUAUUACGAGUG
self-splicing fitness (ln) (30 °C): -3.34 ± 0.17 | self-splicing fitness (ln) (37 °C): -1.83 ± 0.18

CACGAGCAAUAUUACGAUAA
self-splicing fitness (ln) (30 °C): -3.63 ± 0.32 | self-splicing fitness (ln) (37 °C): -2.32 ± 0.28

CACGAGCAAUAUUACGAUAU
self-splicing fitness (ln) (30 °C): -2.64 ± 0.15 | self-splicing fitness (ln) (37 °C): -2.19 ± 0.28

CACGAGCAAUAUUACGCAGC
self-splicing fitness (ln) (37 °C): -1.29 ± 0.35

CACGAGCAAUAUUACGCCAC
self-splicing fitness (ln) (30 °C): -2.97 ± 0.38 | self-splicing fitness (ln) (37 °C): -1.02 ± 0.34

CACGAGCAAUAUUACGCCAG
self-splicing fitness (ln) (30 °C): -3.4 ± 0.27 | self-splicing fitness (ln) (37 °C): -2.95 ± 0.28

CACGAGCAAUAUUACGCGGA
self-splicing fitness (ln) (30 °C): -3.61 ± 0.37 | self-splicing fitness (ln) (37 °C): -3.37 ± 0.4

CACGAGCAAUAUUACGCUUC
self-splicing fitness (ln) (30 °C): -3.96 ± 0.24 | self-splicing fitness (ln) (37 °C): -3.25 ± 0.3

CACGAGCAAUAUUACGGAAU
self-splicing fitness (ln) (30 °C): -2.85 ± 0.25 | self-splicing fitness (ln) (37 °C): -1.67 ± 0.23

CACGAGCAAUAUUACGGCUC
self-splicing fitness (ln) (30 °C): -2.71 ± 0.29 | self-splicing fitness (ln) (37 °C): -1.6 ± 0.28

CACGAGCAAUAUUACGUAAC
self-splicing fitness (ln) (30 °C): -2.41 ± 0.27

CACGAGCAAUAUUACGUCCG
self-splicing fitness (ln) (30 °C): -1.34 ± 0.092 | self-splicing fitness (ln) (37 °C): -0.226 ± 0.096

CACGAGCAAUAUUACGUUAC
self-splicing fitness (ln) (30 °C): -4.19 ± 0.36 | self-splicing fitness (ln) (37 °C): -1.25 ± 0.23

CACGAGCAAUAUUACGUUGC
self-splicing fitness (ln) (30 °C): -3.91 ± 0.24 | self-splicing fitness (ln) (37 °C): -2.14 ± 0.21

CACUAGCAAUAUUACGACAA
self-splicing fitness (ln) (30 °C): -3.16 ± 0.37 | self-splicing fitness (ln) (37 °C): -2.06 ± 0.29

CACUAGCAAUAUUACGAGCA
self-splicing fitness (ln) (30 °C): -3.42 ± 0.18 | self-splicing fitness (ln) (37 °C): -0.879 ± 0.11

CACUAGCAAUAUUACGAGGC
self-splicing fitness (ln) (30 °C): -4.08 ± 0.42 | self-splicing fitness (ln) (37 °C): -2.38 ± 0.2

CACUAGCAAUAUUACGAUUA
self-splicing fitness (ln) (30 °C): -1.21 ± 0.21 | self-splicing fitness (ln) (37 °C): -2.44 ± 0.28

CACUAGCAAUAUUACGCACG
self-splicing fitness (ln) (30 °C): -0.378 ± 0.099 | self-splicing fitness (ln) (37 °C): -0.823 ± 0.089

CACUAGCAAUAUUACGCACU
self-splicing fitness (ln) (30 °C): -1.54 ± 0.11 | self-splicing fitness (ln) (37 °C): -0.108 ± 0.11

CACUAGCAAUAUUACGCAUU
self-splicing fitness (ln) (30 °C): -3.06 ± 0.23 | self-splicing fitness (ln) (37 °C): -2.17 ± 0.17

CACUAGCAAUAUUACGCCCA
self-splicing fitness (ln) (30 °C): -1.1 ± 0.16 | self-splicing fitness (ln) (37 °C): -1.35 ± 0.27

CACUAGCAAUAUUACGCGAC
self-splicing fitness (ln) (30 °C): -3.04 ± 0.18 | self-splicing fitness (ln) (37 °C): -3.16 ± 0.3

CACUAGCAAUAUUACGCGAG
self-splicing fitness (ln) (30 °C): -2.13 ± 0.26 | self-splicing fitness (ln) (37 °C): -1.79 ± 0.17

CACUAGCAAUAUUACGCUGC
self-splicing fitness (ln) (30 °C): -3.71 ± 0.32 | self-splicing fitness (ln) (37 °C): -2.76 ± 0.35

CACUAGCAAUAUUACGGACA
self-splicing fitness (ln) (30 °C): -1.84 ± 0.16 | self-splicing fitness (ln) (37 °C): -1.99 ± 0.18

CACUAGCAAUAUUACGGAGU
self-splicing fitness (ln) (30 °C): -3.63 ± 0.18 | self-splicing fitness (ln) (37 °C): -2.14 ± 0.16

CACUAGCAAUAUUACGGUAA
self-splicing fitness (ln) (30 °C): -2.52 ± 0.16 | self-splicing fitness (ln) (37 °C): -0.923 ± 0.11

CACUAGCAAUAUUACGUACC
self-splicing fitness (ln) (30 °C): -3.22 ± 0.18 | self-splicing fitness (ln) (37 °C): -2.55 ± 0.24

CACUAGCAAUAUUACGUAGU
self-splicing fitness (ln) (30 °C): -3.45 ± 0.14 | self-splicing fitness (ln) (37 °C): -2.92 ± 0.18

CACUAGCAAUAUUACGUAUU
self-splicing fitness (ln) (30 °C): -3.28 ± 0.17 | self-splicing fitness (ln) (37 °C): -2.11 ± 0.15

CACUAGCAAUAUUACGUCGA
self-splicing fitness (ln) (30 °C): -1.58 ± 0.13 | self-splicing fitness (ln) (37 °C): -1.48 ± 0.1

CAGAAGCAAUAUUACGAAAU
self-splicing fitness (ln) (30 °C): -3.92 ± 0.42 | self-splicing fitness (ln) (37 °C): -1.33 ± 0.38
